# Patent US20030040515A1, “Regulation of platelet adhesion and aggregation” (priority 2002, published 2003)
# How the values were obtained:
# purified human vWF = target: T1, purified human vWF (Homo sapiens, UniProt P04275+P07996); assay: ELISA of salt-resistant complexes between TSP-1 and vWF; type: binding
# T1 construct: Purified vWF from human plasma was obtained from the Baker Medical Research Institute; TSP-1 was purified to homogeneity from pooled outdated human platelet concentrates; tissue Baker Medical Research Institute, Melbourne (vWF); host or cells: human plasma (vWF); human platelet concentrates (TSP-1)
# Excerpt: The first step in reduction of a disulfide bond is nucleophilic attack on the substrate disulfide bond by a reductant thiol which results in formation of a disulfide-linked complex between the substrate and the reductant. Release of the reductant from the complex requires nucleophilic attack on the disulfide linkage by another thiol, usually of the reductant. We reasoned that N-ethylmaleimide (NEM, Sigma, St. Louis, Mo.) might trap intermediate covalent complexes of TSP-1 and vWF by blocking the TSP-1 thiol responsible for separating TSP-1 and vWF. Maleimides react rapidly and specifically with cysteine thiols at neutral pH. This prediction was tested by measuring formation of salt-resistant complexes between TSP-1 and vWF and the effect of the thiol-blocking reagent, NEM, on complex formation.
# Purified vWF from human plasma was obtained from the Baker Medical Research Institute, Melbourne and was purified according to Booth et at. (1984). The vWF (100 μl of 5 μg per ml in 0.1M NaHCO3, pH 8.3 buffer) was adsorbed to Nunc PolySorp 96 well plates overnight at 4° C. in a humid environment. […] Wells were washed three times with Hepes buffer and the peroxidase detected as described previously (Favaloro et al., 1991). […]
# vWF = target: T2, vWF (Homo sapiens, UniProt P04275); assay: Reduction in average multimer size of vWF in TTP plasma (agarose gel, collagen binding/vWF antigen); type: biochemical; settings: plasma from a patient with TTP
# T2 construct: from tissue; host or cells: plasma of a TTP patient (vWF); human platelet concentrates (TSP-1)
# Protocol: TTP plasma was incubated with 20 mM Hepes, 0.14M NaCl, 1 mM CaCl2, 1 mM MgCl2, pH 7.4 buffer, conditioned media of HMEC-1 cells or the Hepes buffer containing TSP-1 for 1 or 24 hours at 37° C. Aliquots of the reactions were diluted 10-fold in the Hepes buffer and assayed for collagen binding affinity and vWF antigen as described by Favaloro et al. (1991). On some occasions, aliquots of the reactions were resolved on 1% agarose gel electrophoresis (Ruggeri and Zimmerman, 1980), transferred to PVDF membrane (DuPont NEN, Boston, Mass.), blotted with 2 μg per ml of horse radish peroxidase conjugated anti-vWF polyclonal antibodies (DAKO Corporation, Carpinteria, Calif.) and visualized using chemiluminescence (DuPont NEN, Boston, Mass.).
# TSP-1 is a major component of platelet α-granules which is secreted upon platelet activation and aggregation. TSP-1 was purified to homogeneity from pooled outdated human platelet concentrates (Murphy-Ullrich and Mosher. 1985; Hogg et al., 1997) and tested for vWF reductase activity. Buffers containing 0.1 mM CaCl2 were used throughout the chromatographic purification of TSP1. […] In particular, the very large multimers were lost (see bracket in FIG. 3A). […] TSP-1-mediated reduction in vWF multimer size was concentration- and time-dependent (FIG. 3B). Three different preparations of platelet TSP-1 had the same vWF reducing activity (not shown). It is noteworthy that the molar ratio of TSP-1 to vWF influenced the extent of reduction in vWF multimer size (FIG. 3B). The vWF reductase activity in endothelial cell conditioned medium is inhibited by EDTA. In accordance with this observation, chelation of Ca^2+ with EDTA ablated the vWF reductase activity of TSP-1 (not shown).
# plasma vWF = target: T3, plasma vWF (Mus musculus, UniProt Q8CIZ8); assay: Reduction in the average multimer size of vWF by TSP-1 in vivo; settings: Balb c mice; 1 mg per kg intraperitoneal; plasma 24 hours later; p<0.05 vs buffer vehicle
# T3 construct: from tissue; host or cells: plasma of Balb c mice (in vivo)
# Protocol: The ability of TSP-1 to reduce the average multimer size of vWF in vivo was examined by administering TSP-1 to mice via intraperitoneal injection and measuring the consequence for the average multimer size of plasma vWF. Balb c mice (7 to 9 weeks of age) were administered either buffer vehicle (n=4) or 1 mg per kg purified human platelet TSP-1 (n=4) via 0.1 ml intraperitoneal injections. There were 2 male and 2 female mice in each group. Blood was collected by cardiac puncture into EDTA 24 hours later and the plasma was analyzed in triplicate for vWF antigen levels and collagen binding affinity.
# [1] = pH 8; cited from earlier work
# purified vWF = purified vWF (Homo sapiens, UniProt P04275); assay: Effect of purified reductants or thiol reagents on the average multimer size of purified vWF (agarose gel electrophoresis); type: biochemical; set-up: Purified vWF from human plasma was obtained from the Baker Medical Research Institute; tissue Baker Medical Research Institute, Melbourne; host or cells: human plasma; settings: incubation of vWF with IAM or NEM alone
# [2] = tested on: vWF depolymerizing activity of BAECcm; assay: Inhibitor profile of the vWF depolymerizing activity of BAEC conditioned medium; type: biochemical; settings: measured by agarose gel electrophoresis or collagen binding; BAECcm treated with agent
# T3 sequence (Q8CIZ8 764-2813 limits assumed): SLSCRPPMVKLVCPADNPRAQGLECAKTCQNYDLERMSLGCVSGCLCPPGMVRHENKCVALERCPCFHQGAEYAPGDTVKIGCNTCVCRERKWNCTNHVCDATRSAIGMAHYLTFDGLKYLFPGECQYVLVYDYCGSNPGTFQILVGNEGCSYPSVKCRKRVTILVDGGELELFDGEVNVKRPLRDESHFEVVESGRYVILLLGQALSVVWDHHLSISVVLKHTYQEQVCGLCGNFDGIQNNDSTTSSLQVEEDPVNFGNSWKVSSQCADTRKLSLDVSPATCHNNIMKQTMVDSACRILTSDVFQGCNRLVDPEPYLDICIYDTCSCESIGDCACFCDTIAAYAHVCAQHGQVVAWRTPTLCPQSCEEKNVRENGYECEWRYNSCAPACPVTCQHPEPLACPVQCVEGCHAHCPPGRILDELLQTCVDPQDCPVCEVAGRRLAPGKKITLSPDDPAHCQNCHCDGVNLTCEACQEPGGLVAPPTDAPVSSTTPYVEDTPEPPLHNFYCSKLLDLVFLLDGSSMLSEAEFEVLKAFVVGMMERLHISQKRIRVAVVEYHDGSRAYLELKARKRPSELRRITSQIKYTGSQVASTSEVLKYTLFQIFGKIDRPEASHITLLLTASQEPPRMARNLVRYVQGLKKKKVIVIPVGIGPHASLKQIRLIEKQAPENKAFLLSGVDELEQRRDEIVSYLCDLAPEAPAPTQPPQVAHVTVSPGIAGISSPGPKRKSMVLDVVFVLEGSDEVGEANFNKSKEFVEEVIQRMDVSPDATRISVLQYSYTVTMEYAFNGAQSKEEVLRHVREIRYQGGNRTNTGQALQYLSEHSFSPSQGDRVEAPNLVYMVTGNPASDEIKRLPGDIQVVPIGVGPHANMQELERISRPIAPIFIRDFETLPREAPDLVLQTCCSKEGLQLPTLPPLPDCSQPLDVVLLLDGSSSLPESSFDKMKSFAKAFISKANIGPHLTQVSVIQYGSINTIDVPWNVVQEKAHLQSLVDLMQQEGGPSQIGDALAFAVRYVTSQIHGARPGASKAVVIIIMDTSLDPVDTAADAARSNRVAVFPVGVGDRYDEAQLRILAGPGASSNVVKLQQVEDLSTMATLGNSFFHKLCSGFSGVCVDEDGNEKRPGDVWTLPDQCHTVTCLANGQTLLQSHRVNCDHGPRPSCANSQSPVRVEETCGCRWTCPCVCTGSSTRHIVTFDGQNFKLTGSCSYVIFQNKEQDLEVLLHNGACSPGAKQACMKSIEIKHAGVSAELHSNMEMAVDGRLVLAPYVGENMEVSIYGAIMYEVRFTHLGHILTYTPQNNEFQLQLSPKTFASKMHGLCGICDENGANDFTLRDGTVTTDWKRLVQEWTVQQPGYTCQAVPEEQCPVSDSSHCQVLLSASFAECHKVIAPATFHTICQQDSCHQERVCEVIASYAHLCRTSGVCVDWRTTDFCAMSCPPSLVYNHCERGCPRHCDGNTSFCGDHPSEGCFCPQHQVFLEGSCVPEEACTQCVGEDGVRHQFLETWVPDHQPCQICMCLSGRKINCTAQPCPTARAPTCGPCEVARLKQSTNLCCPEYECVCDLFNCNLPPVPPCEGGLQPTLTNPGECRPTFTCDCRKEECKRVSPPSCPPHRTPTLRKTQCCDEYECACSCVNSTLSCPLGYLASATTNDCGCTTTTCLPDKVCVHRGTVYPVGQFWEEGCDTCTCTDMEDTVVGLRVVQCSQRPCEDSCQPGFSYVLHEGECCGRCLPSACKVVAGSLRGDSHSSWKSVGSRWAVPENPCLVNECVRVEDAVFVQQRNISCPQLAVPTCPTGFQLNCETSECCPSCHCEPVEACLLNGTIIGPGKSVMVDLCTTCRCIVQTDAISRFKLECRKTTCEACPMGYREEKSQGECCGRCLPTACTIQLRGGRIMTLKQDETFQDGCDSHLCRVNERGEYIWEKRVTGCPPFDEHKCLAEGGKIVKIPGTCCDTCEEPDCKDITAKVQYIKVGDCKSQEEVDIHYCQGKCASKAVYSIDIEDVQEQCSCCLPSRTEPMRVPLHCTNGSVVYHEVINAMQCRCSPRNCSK
Compound,"binding of TSP-1 to wells not coated with vWF (purified human vWF; 10 μg per ml TSP-1, wells blocked with BSA)","effect on average multimer size of vWF (vWF; 37° C., agarose gel electrophoresis)",effect on affinity of vWF for collagen (vWF; collagen binding relative to vWF antigen),CBA/vWFAg (average multimer size of plasma vWF) (plasma vWF),"fold more TSP-1 bound to vWF in the presence of NEM (purified human vWF; 5 or 20 mM NEM, TSP-1 0 to 10 μg per ml, 30 minutes at room temperature, 1M NaCl wash)",second order rate constant of reaction with free thiols [1],effect on average multimer size of vWF (purified vWF),effect on vWF depolymerizing activity of BAECcm [2]
thrombospondin-1 [TSP-1],no binding,reduced the average multimer size of vWF,decrease in affinity of vWF for collagen,0.83±0.05,–,–,–,–
"CCN1C(=O)C=CC1=O [NEM, N-ethylmaleimide]",–,–,–,–,Up to 8 fold,~10^4 M^−1s^−1,did not have any discernible effect,inactivated
